Laboratory results from publication PMC12416549 (2024).
Residue numbers refer to the chain shown, from its start. In names and notes the source's numbering stands.

T1: TNFR1 (Homo sapiens, UniProt P19438)
T1 chain: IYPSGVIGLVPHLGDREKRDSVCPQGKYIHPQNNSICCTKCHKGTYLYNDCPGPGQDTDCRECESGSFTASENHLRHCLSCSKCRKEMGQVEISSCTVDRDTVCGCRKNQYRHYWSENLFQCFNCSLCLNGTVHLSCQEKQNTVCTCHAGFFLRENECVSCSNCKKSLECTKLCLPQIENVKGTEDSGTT

B1: A30K (designed binder)
chain: SMEEEVEKAAKEYEKKKKEAIEKHLEKLKKKDKEAAERFLKELEEAAKEYAKDEAKTMSEEEAKRRAKKYKEKVLLSELSEEEQKEIKEAEEKLVRTILKYVEEAAK
B2: E83K (designed binder)
chain: B1 chain with K30A, E83K
B3: E89K (designed binder)
chain: B1 chain with K30A, E89K
B4: E45T (designed binder)
chain: B1 chain with K30A, E45T
B5: E14N (designed binder)
chain: B1 chain with E14N, K30A
B6: K88A (designed binder)
chain: B1 chain with K30A, K88A
B7: E37F (designed binder)
chain: B1 chain with K30A, E37F
B8: E34K (designed binder)
chain: B1 chain with K30A, E34K
B9: E54R (designed binder)
chain: B1 chain with K30A, E54R
B10: L99K (designed binder)
chain: B1 chain with K30A, L99K
B11: A63D (designed binder)
chain: B1 chain with K30A, A63D
B12: A30Q (designed binder)
chain: B1 chain with K30Q
B13: K8H (designed binder)
chain: B1 chain with K8H, K30A
B14: M58W (designed binder)
chain: B1 chain with K30A, M58W
B15: K8T (designed binder)
chain: B1 chain with K8T, K30A
B16: A9E (designed binder)
chain: B1 chain with A9E, K30A
B17: L25Y (designed binder)
chain: B1 chain with L25Y, K30A
B18: Y50T (designed binder)
chain: B1 chain with K30A, Y50T
B19: A90F (designed binder)
chain: B1 chain with K30A, A90F
B20: A105I (designed binder)
chain: B1 chain with K30A, A105I
B21: A90W (designed binder)
chain: B1 chain with K30A, A90W
B22: E49S (designed binder)
chain: B1 chain with K30A, E49S
B23: E26G (designed binder)
chain: B1 chain with E26G, K30A
B24: K31E (designed binder)
chain: B1 chain with K30A, K31E
B25: I98E (designed binder)
chain: B1 chain with K30A, I98E
B26: E5F (designed binder)
chain: B1 chain with E5F, K30A
B27: T97L (designed binder)
chain: B1 chain with K30A, T97L
B28: I87T (designed binder)
chain: B1 chain with K30A, I87T
B29: S80N (designed binder)
chain: B1 chain with K30A, S80N
B30: A20S (designed binder)
chain: B1 chain with A20S, K30A
B31: E78P (designed binder)
chain: B1 chain with K30A, E78P
B32: E26I (designed binder)
chain: B1 chain with E26I, K30A
B33: A90K (designed binder)
chain: B1 chain with K30A, A90K
B34: K27Q (designed binder)
chain: B1 chain with K27Q, K30A
B35: K29L (designed binder)
chain: B1 chain with K29L, K30A
B36: A36M (designed binder)
chain: B1 chain with K30A, A36M
B37: E54L (designed binder)
chain: B1 chain with K30A, E54L
B38: E42V (designed binder)
chain: B1 chain with K30A, E42V
B39: K71L (designed binder)
chain: B1 chain with K30A, K71L
B40: I21D (designed binder)
chain: B1 chain with I21D, K30A
B41: E12N (designed binder)
chain: B1 chain with E12N, K30A
B42: E19M (designed binder)
chain: B1 chain with E19M, K30A
B43: K11V (designed binder)
chain: B1 chain with K11V, K30A
B44: E83V (designed binder)
chain: B1 chain with K30A, E83V
B45: Y101V (designed binder)
chain: B1 chain with K30A, Y101V
B46: K27R (designed binder)
chain: B1 chain with K27R, K30A
B47: K69M (designed binder)
chain: B1 chain with K30A, K69M
B48: K88I (designed binder)
chain: B1 chain with K30A, K88I
B49: A51N (designed binder)
chain: B1 chain with K30A, A51N
B50: K8Y (designed binder)
chain: B1 chain with K8Y, K30A
B51: K69H (designed binder)
chain: B1 chain with K30A, K69H
B52: I98R (designed binder)
chain: B1 chain with K30A, I98R
B53: E54D (designed binder)
chain: B1 chain with K30A, E54D
B54: T97D (designed binder)
chain: B1 chain with K30A, T97D
B55: E26R (designed binder)
chain: B1 chain with E26R, K30A
B56: V102D (designed binder)
chain: B1 chain with K30A, V102D
B57: A90D (designed binder)
chain: B1 chain with K30A, A90D
B58: L28S (designed binder)
chain: B1 chain with L28S, K30A
B59: I87P (designed binder)
chain: B1 chain with K30A, I87P

Molecular target: T1, TNFR1
Assay: yeast display SC50

apparent Kd (screen) [nM]	Binder
0.956	B1
0.593	B2
2.73	B3
2.73	B4
5.31	B5
0.405	B6
0.49	B7
0.539	B8
18.3	B9
7.78	B10
10.4	B11
0.593	B12
0.956	B13
18.3	B14
1.16	B15
0.446	B16
0.446	B17
1.16	B18
0.49	B19
1.69	B20

apparent Kd (screen) [nM]	Binder
0.49	B21
1.27	B22
0.593	B23
1.05	B24
4.39	B25
1.05	B26
1.69	B27
12.5	B28
2.73	B29
0.446	B30
2.73	B31
1.16	B32
0.956	B33
0.593	B34
0.79	B35
0.446	B36
4.39	B37
1.16	B38
0.653	B39
10.4	B40

apparent Kd (screen) [nM]	Binder
1.16	B41
0.446	B42
0.593	B43
0.446	B44
0.446	B45
0.869	B46
0.49	B47
0.446	B48
12.5	B49
0.956	B50
0.49	B51
1.4	B52
20.2	B53
0.446	B54
0.593	B55
0.539	B56
0.446	B57
0.49	B58
22.2	B59
